Measured values published in article PMC9348906 (Science (New York, N.Y.), 2022).
Several values for one entry are separate records, joined by “and”; a condition that tells them apart may be missing. Equal values may be shown once. Read-outs that look alike come from different tables or passages of the source.

B1: NUP358^NTD (domain or fragment, human, UniProt P49792 1-752, looked up)
chain: MRRSKADVERYIASVQGSTPSPRQKSMKGFYFAKLYYEAKEYDLAKKYICTYINVQERDPKAHRFLGLLYELEENTDKAVECYRRSVELNPTQKDLVLKIAELLCKNDVTDGRAKYWLERAAKLFPGSPAIYKLKEQLLDCEGEDGWNKLFDLIQSELYVRPDDVHVNIRLVEVYRSTKRLKDAVAHCHEAERNIALRSSLEWNSCVVQTLKEYLESLQCLESDKSDWRATNTDLLLAYANLMLLTLSTRDVQESRELLQSFDSALQSVKSLGGNDELSATFLEMKGHFYMHAGSLLLKMGQHSSNVQWRALSELAALCYLIAFQVPRPKIKLIKGEAGQNLLEMMACDRLSQSGHMLLNLSRGKQDFLKEIVETFANKSGQSALYDALFSSQSPKDTSFLGSDDIGNIDVREPELEDLTRYDVGAIRAHNGSLQHLTWLGLQWNSLPALPGIRKWLKQLFHHLPHETSRLETNAPESICILDLEVFLLGVVYTSHLQLKEKCNSHHSSYQPLCLPLPVCKQLCTERQKSWWDAVCTLIHRKAVPGNVAKLRLLVQHEINTLRAQEKHGLQPALLVHWAECLQKTGSGLNSFYDQREYIGRSVHYWKKVLPLLKIIKKKNSIPEPIDPLFKHFHSVDIQASEIVEYEEDAHITFAILDAVNGNIEDAVTAFESIKSVVSYWNLALIFHRKAEDIENDALSPEEQEECKNYLRKTRDYLIKIIDDSDSNLSVVKKLPVPLESVKEMLNSVMQE
B2: NUP358^1–832 (domain or fragment, human, UniProt P49792 1-832, looked up)
chain: MRRSKADVERYIASVQGSTPSPRQKSMKGFYFAKLYYEAKEYDLAKKYICTYINVQERDPKAHRFLGLLYELEENTDKAVECYRRSVELNPTQKDLVLKIAELLCKNDVTDGRAKYWLERAAKLFPGSPAIYKLKEQLLDCEGEDGWNKLFDLIQSELYVRPDDVHVNIRLVEVYRSTKRLKDAVAHCHEAERNIALRSSLEWNSCVVQTLKEYLESLQCLESDKSDWRATNTDLLLAYANLMLLTLSTRDVQESRELLQSFDSALQSVKSLGGNDELSATFLEMKGHFYMHAGSLLLKMGQHSSNVQWRALSELAALCYLIAFQVPRPKIKLIKGEAGQNLLEMMACDRLSQSGHMLLNLSRGKQDFLKEIVETFANKSGQSALYDALFSSQSPKDTSFLGSDDIGNIDVREPELEDLTRYDVGAIRAHNGSLQHLTWLGLQWNSLPALPGIRKWLKQLFHHLPHETSRLETNAPESICILDLEVFLLGVVYTSHLQLKEKCNSHHSSYQPLCLPLPVCKQLCTERQKSWWDAVCTLIHRKAVPGNVAKLRLLVQHEINTLRAQEKHGLQPALLVHWAECLQKTGSGLNSFYDQREYIGRSVHYWKKVLPLLKIIKKKNSIPEPIDPLFKHFHSVDIQASEIVEYEEDAHITFAILDAVNGNIEDAVTAFESIKSVVSYWNLALIFHRKAEDIENDALSPEEQEECKNYLRKTRDYLIKIIDDSDSNLSVVKKLPVPLESVKEMLNSVMQELEDYSEGGPLYKNGSLRNADSEIKHSTPSPTRYSLSPSKSYKYSPKTPPRWAEDQNSLLKMICQQVEAIKKEMQELKLNS

Key:
Test in all cases: SEC-MALS
[1] = target: C. thermophilum coat nup complex (CNC) (C. thermophilum) (UniProt G0S2X1)
C. thermophilum coat nup complex (CNC) (C. thermophilum), sequence (G0S2X1 whole entry, looked up, one chain of several): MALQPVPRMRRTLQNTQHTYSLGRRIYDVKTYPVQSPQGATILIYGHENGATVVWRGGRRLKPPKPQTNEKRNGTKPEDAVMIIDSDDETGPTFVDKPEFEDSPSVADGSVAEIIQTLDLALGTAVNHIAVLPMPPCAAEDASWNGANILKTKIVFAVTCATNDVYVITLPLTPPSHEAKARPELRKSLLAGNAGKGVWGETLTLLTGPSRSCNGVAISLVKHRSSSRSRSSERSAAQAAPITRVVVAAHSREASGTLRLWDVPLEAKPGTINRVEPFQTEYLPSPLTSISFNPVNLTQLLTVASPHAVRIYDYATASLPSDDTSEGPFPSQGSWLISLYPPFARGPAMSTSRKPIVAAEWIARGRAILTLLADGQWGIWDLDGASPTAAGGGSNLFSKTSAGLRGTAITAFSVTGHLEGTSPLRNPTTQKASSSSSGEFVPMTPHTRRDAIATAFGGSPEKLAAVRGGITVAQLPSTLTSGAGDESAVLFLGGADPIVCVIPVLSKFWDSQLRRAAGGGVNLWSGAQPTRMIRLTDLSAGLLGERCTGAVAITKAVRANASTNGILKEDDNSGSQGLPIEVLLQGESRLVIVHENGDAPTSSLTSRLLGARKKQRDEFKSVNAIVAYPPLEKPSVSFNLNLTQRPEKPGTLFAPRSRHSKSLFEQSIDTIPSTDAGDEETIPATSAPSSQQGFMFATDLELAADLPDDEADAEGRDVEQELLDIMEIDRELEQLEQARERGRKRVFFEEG

[2] = target: the molecule itself
[3] = target: the molecule itself; remark: listed apart in the source

| Molecule | stoichiometry N [3] | other results |
| --- | --- | --- |
| C. thermophilum cytoplasmic filament nup complex (CFNC) (from UniProt G0S4F3 1-882; G0SBS8 1-1481; G0SBQ3 1-678; G0SAK3 1-993) | – | stoichiometry N [1]: 2 |
| B1 | – | stoichiometry N [2]: 2 |
| RWAEDQNSLLKMICQQVEAIKKEMQELKLNS (domain or fragment, human, UniProt P49792 802-832, looked up) [NUP358^OE] | 2 and 4 | – |
| B2 | 4 and 5 | – |
